Measured values: patent US20090275105A1, “PROCESS FOR THE PRODUCTION OF BROMELAIN BY MEANS OF SUBSTANCES THAT INDUCE PROTEINS IN PINEAPPLE PLANTS” (priority 2006, published 2009)

What was measured:
[1] = Comparison of the specific activity of bromelain obtained from different methods; format: biochemical, Ananas comosus; conditions: 30 mg/ml protein sample; inducers: 15 days from induction
Description: The plantlets grown in vitro in different culture mediums indicated in this invention were taken and rinsed in running water to remove the Induction SS medium. 330 g of plants were weighed, placed in an extractor to be ground and 200 ml of juice was obtained (first extraction) that was stored at a temperature of 4° C. 670 ml of extraction buffer (monobasic potassium phosphate and dibasic potassium phosphate) is added to the pulp obtained from the extraction at a pH of 6.1 and a concentration of 0.05M; this is allowed to repose for 20 minutes in order to afterwards collect the enzyme and pass it through an extractor and thus obtain the second juice. The following step is to mix and homogenize the juice from the first extraction with the second extraction for 1 minute at 2000 rpm and to then centrifuge at 10000 rpm for 20 min. at 4° C., to afterwards recover the supernatant with a volume of approximately 800 ml which is frozen at −80° C. and lyophilized (10% of solids) for its preservation. The extraction procedure is applied for all the treatments of which the amount of protein present is determined (Bradford) expressing the protein per ml of extract in mg. A standard curve is used for the protein tests. The standard used was bovine serum albumin at 0.20-1.0 mg/ml. Based on the results, the following specific activities were obtained compared with imported commercial bromelain and bromelain induced from in vitro plants.

[2] = test system: pineapple plants (Ananas comosus); experiment: Specific enzyme activity of raw extract from pineapple plantlets induced in vitro (Dapeau method); format: in vivo; conditions: sacarose 30-90 g/L as inducer
Description: In order to perform the evaluation of the inducers, a factor design was carried out of 3×3×3 with three inducers at three different concentrations and three monitoring times (Chart 4), for each treatment The evaluations are carried out using the inducers separately or in combination giving a total of […]. […] The induction was begun with the selection of the sprouts previously established in vitro with a size of 2 cm and an average of 3 leaves and weighing 120 mg. […] Once the inducers are added to the modified SS, it is sterilized at 121° C., at a pressure of 1.2 kg/cm^2 for 20 minutes. In the treatments that contain salicylic acid, the modified SS medium is first sterilized and later the acid is added, which was sterilized through filtration, under aseptic conditions in a laminar flow hood. Here it is advisable to add the acid to the medium before it is cooled to achieve the homogenization of the inducer with the medium before it is solidified. The sprouts are planted under aseptic conditions in 460 ml flasks that contain 30 ml of the Induction SS, said flasks are closed and sealed with clear tape in order to avoid any filtering of air and with the air, contamination of same. The treatments are moved to a growth room under controlled conditions at 27±2° C. and a photoperiod of 16 hr/light and 8 hr/darkness for a period of 7, 15, 30 and 45 days. […]

[3] = cited from earlier work
[4] = bromelain obtained from stems; cited from earlier work
[5] = fractioning with ammonium sulfate; cited from earlier work

[Cl-].[Na+] [NaCl, sodium chloride]
Specific activity (U/mg^−1 protein) [1]: 4.98 U/mg^−1 protein

OC[C@H]1O[C@@](CO)(O[C@H]2O[C@H](CO)[C@@H](O)[C@H](O)[C@H]2O)[C@@H](O)[C@@H]1O [Sacarose]
specific activity in induction tests, comparison of inducers [2]: greater specific activity
Specific activity (U/mg^−1 protein) [1]: 635 U/mg^−1 protein

O=C(O)c1ccccc1O [Salicylic acid]
Specific activity (U/mg^−1 protein) [1]: 3.17 U/mg^−1 protein

Bromelain
Stability in solutions of 25% methanol (v/v) ([3]; 25° C. for 20 min): stable
loss of activity when the enzymatic solution is heated ([3]; 55° C. for 20 min at pH 6): 50%
Optimal pH ([3]; Inagami and Murachi, 1963): approximately 7
loss in activity caused by lyophilization ([3]; Murachi et al., 1964): 27%
Isoelectric Point p1 [4]: 9.55
proteolytic activity [5]: 1.64 U/mg^−1
